Among the data in publication PMC9061721 (2022) are EC50 values, retold here.

Assay [1] addresses SC/09 H1N1 HA protein (A/Sichuan/01/2009) (influenza A virus A/Sichuan/01/2009 …). Kind of assay: ELISA. In general terms: An ELISA detects its analyte on a solid surface through an enzyme-linked reagent.
Assay [2] addresses A/Hong Kong/01/1968 (H3N2) HA (influenza A virus A/Hong Kong/01/1968 …, UniProt Q91MA7). Kind of assay: ELISA.

B1: 28-12 (antibody, V domains shown)
VH: EVQLVESGGGLVQPGGSLRLSCAASGFTFSTYNMNWVRQAPGKGLEWLSYISTSSNTIYYADSVKGRFTISRDNAKNSLFLQMNSLRDEDTAVYYCARDRGCSSTNCYVVGYYFYGMDVWGQGTTVTVSS
VL: DIQMTQSPSSVSASVGDRVTITCRASQGISSYLAWYQLKPGRAPKLLIYGATRLQSGVPSRFSGSGSGTDFTLTISGLQPEDFATYHCQQADSFPLTFGQGTRLEIK
Broadly, the EC50 is the midpoint of the concentration-response curve. In the case of B1, the results for the EC50 in assay [1] and in assay [2] were 0.0647 µg/mL and 0.0754 µg/mL, respectively.
